Measurements taken from patent publication US20190161555A1 (ALLIGATOR BIOSCIENCE, published 2019).

Biological target: T1, Human OX40 (R&D Systems, 3388-OX) (human, UniProt P43489 29-216)
T1 construct: bought; also called OX40-Fc; Human OX40 (R&D systems, #3358_OX)
T1 sequence (looked up): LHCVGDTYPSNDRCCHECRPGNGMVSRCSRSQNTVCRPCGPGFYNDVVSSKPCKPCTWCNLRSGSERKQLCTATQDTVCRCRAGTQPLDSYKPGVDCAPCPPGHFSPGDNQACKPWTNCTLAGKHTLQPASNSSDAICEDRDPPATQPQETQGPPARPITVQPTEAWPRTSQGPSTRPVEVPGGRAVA
Assay: dual ELISA: OX40-Fc coated, detection with biotinylated 5T4-Fc and streptavidin-HRP, luminescence
Procedure: A dual ELISA was used to detect simultaneous binding of the two targets by the bispecific antibodies. ELISA plates were coated with OX40-Fc (R&D systems, #3388-OX, 0.5 μg/ml) over night at 4° C. followed by blocking with PBST+2% bovine serum albumin (BSA) for 1 h at room temperature (RT). […] Biotinylated 5T4-Fc (0.5 μg/ml), followed by HRP-labelled streptavidin (Pierce #21126) were used for detection. Super signal ELISA Pico Chemiluminescent Substrate (Thermo Scientific, #37069) was used as substrate and luminescence was measured using FLUOstar Optima.

B1: 1210/1211 (antibody, IgG1, V domains shown)
VH: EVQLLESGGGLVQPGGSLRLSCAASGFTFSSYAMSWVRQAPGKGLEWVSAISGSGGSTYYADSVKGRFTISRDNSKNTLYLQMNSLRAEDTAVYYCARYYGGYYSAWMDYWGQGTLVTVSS
VL: DIQMTQSPSSLSASVGDRVTITCRASQSISSYLNWYQQKPGKAPKLLIYAASSLQSGVPSRFSGSGSGTDFTLTISSLQPEDFATYYCQQTYGYLHTFGQGTKLEIK
notes: 5T4 antibody
- binding result: no binding (tested: about 80 nM (log[conc ab] 1.9))
